# Measurements: publication PMC8992277 (ACS Omega, 2022)
# T1: Human neuroglobin (human, UniProt Q9NPG2 1-151)
# T1 sequence (looked up): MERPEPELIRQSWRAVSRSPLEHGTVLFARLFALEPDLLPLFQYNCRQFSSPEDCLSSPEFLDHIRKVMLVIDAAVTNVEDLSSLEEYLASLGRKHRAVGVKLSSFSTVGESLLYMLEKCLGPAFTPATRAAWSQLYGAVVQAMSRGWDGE
# B1: Human cytochrome c I81N variant (natural protein)
# chain: not shown
# modifications: heme c covalently linked to the peptide chain via two thioether bonds through the CXXCH motif
# Target: T1, Human neuroglobin
# Test: ITC
binder,measurement,value
B1,Ka,5300 M⁻¹
same,Kd,189 µM
same,"dH, fold of that of WT hCyt c binding to Ngb",~6 fold
